T1: Human ALPP (leucine zipper) (human)
T1 construct: Whole entry: ALPP fused with a cysteine stabilised leucine zipper and His tag; also called hALPP
T1 chain: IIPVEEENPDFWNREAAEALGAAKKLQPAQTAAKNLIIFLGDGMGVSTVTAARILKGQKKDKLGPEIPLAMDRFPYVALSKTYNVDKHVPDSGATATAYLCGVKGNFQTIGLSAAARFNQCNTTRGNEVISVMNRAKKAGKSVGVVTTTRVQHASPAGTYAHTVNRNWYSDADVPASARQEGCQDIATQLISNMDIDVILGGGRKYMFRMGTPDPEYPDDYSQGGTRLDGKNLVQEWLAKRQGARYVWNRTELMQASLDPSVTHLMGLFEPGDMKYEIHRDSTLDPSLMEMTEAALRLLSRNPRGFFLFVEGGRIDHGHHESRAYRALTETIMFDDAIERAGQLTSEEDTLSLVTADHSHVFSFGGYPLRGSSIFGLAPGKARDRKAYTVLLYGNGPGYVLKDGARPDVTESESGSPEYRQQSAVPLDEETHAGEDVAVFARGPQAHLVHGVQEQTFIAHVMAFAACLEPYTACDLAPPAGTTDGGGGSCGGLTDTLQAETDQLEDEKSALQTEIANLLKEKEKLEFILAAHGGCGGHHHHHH

T2: Human ALPPL2 (leucine zipper) (human)
T2 construct: Whole entry: fused with a cysteine stabilised leucine zipper and His tag; also called hALPPL2
T2 chain: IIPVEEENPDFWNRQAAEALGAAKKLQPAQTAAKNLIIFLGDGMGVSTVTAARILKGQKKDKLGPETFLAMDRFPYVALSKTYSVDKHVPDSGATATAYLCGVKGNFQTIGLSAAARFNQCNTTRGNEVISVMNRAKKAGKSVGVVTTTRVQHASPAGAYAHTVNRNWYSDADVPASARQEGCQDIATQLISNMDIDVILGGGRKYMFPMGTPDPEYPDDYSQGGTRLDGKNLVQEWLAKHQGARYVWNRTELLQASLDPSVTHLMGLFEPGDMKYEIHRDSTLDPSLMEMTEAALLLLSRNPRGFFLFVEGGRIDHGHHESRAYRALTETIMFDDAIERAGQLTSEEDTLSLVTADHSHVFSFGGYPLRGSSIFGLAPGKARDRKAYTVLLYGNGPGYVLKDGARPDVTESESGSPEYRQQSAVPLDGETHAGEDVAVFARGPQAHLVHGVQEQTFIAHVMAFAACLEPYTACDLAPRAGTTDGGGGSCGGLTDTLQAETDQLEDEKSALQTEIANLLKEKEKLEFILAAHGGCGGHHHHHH

T3: human ALPL on CHO cells (human, UniProt P05186 18-501)
T3 construct: whole, on cells; also called CHO-ALPL
T3 sequence (looked up): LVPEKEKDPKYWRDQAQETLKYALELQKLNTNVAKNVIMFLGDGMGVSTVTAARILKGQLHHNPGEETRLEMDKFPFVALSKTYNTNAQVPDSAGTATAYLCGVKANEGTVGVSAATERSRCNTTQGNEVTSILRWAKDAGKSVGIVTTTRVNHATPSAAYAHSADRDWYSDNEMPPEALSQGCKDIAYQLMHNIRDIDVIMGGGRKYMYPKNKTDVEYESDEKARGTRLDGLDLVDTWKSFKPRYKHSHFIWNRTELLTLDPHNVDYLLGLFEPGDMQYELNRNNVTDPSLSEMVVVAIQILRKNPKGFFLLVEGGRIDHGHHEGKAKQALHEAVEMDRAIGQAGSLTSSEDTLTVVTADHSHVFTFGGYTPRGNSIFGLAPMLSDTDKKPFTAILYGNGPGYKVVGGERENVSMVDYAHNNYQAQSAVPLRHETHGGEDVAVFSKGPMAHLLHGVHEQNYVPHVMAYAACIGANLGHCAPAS


Legend:
[1] = biological target: T4, human ALPPL2 on CHO cells (human, UniProt P10696 20-503); test: flow cytometry, CHO cells, KDapp
T4 construct: whole, on cells; also called CHO-ALPPL2
Method: (§1) Cell surface binding of test agents to hALPP isoforms was characterized in four CHO-ALPP isoform stably transfected cell lines (CHO-ALPP, CHO-ALPPL2, CHO-ALPI and CHO-ALPL) and the resulting KDapp values determined. Adherent cells were detached from tissue culture flasks by incubating with 0.1% EDTA/PBS solution at 37° C. for ~10 minutes or until cells detached easily. Cells were re-suspended in ice-cold PBS/2% FCS in 15 ml tubes and centrifuged at 1700 rpm for 5 mins at 4° C. Supernatant was removed and the cell pellet re-suspended in PBS/2% FCS. […] Cells were incubated with 100 μl of test agents at a range of concentrations, plus controls for 1 hr on ice. The sample plate was centrifuged at 1700 rpm for 5 mins at 4° C. The supernatant was removed, and a wash performed by re-suspending the cell pellets in 0.25 mL of ice-cold PBS/2% FCS using a multichannel pipette. Samples were again centrifuged at 1700 rpm for 5 min at 4° C. Supernatant was removed and two further washes performed as described. After the final wash and centrifugation step, excess liquid was removed by blotting the plate on tissue paper. Binding of VHH (His6 tagged) agents was determined by adding 100 μl of anti-x6His tag Ab (Abcam) per cell pellet sample as appropriate and incubating on ice for 30 mins. Wash steps were performed as described previously. Fitc-anti-mouse antibody (ThermoFisher) was used to detect binding of the VHH (His6 tagged) agents by incubating with the appropriate samples for 30 min on ice in the dark. Wash steps were performed as described previously. All cell pellets were finally re-suspended in […] of ice-cold PBS/2% FCS and left on ice in the dark prior to analysis on a Merck-Millipore Guava EasyCyte HT or Thermo Fisher Attune N×T flow cytometer.

human ALPP on CHO cells [2] = biological target: T5, human ALPP on CHO cells (human, UniProt P05187 23-506); test: flow cytometry, CHO cells, KDapp
T5 construct: whole, on cells; also called CHO-ALPP
Method: as §1

[3] = biological target: T4, human ALPPL2 on CHO cells; test: flow cytometry, CHO cells stably expressing human ALPPL2; His6-tagged VHH detected with anti-His tag Ab and FITC anti-mouse Ab
Method: (§2) C-terminal His tagged VHH proteins were assessed for ALPP, ALPPL2, ALPI and ALPL cell-surface binding by flow cytometry. Binders encompassing different epitope bins were screened on CHO cells stably expressing ALPP, ALPPL2, ALPI or ALPL. High levels of cell-surface proteins expression were confirmed for each of the cell-lines by flow cytometry.
(§3) Cell surface binding of test agents to hALPP isoforms was characterized in four CHO-ALPP isoform stably transfected cell lines (CHO-ALPP, CHO-ALPPL2, CHO-ALPI and CHO-ALPL) and the resulting KDapp values determined. Adherent cells were detached from tissue culture flasks by incubating with 0.1% EDTA/PBS solution at 37° C. for ~10 minutes or until cells detached easily. Cells were re-suspended in ice-cold PBS/2% FCS in 15 ml tubes and centrifuged at 1700 rpm for 5 mins at 4° C. Supernatant was removed and the cell pellet re-suspended in PBS/2% FCS. […] Cells were incubated with 100 μl of test agents at a range of concentrations, plus controls for 1 hr on ice. The sample plate was centrifuged at 1700 rpm for 5 mins at 4° C. The supernatant was removed, and a wash performed by re-suspending the cell pellets in 0.25 mL of ice-cold PBS/2% FCS using a multichannel pipette. […] Binding of VHH (His6 tagged) agents was determined by adding 100 μl of anti-x6His tag Ab (Abcam) per cell pellet sample as appropriate and incubating on ice for 30 mins. […]

human ALPP on CHO cells [4] = biological target: T5, human ALPP on CHO cells; test: flow cytometry, CHO cells stably expressing human ALPP; His6-tagged VHH detected with anti-His tag Ab and FITC anti-mouse Ab
Method: as §2, §3

[5] = biological target: T1, Human ALPP (leucine zipper); test: BLI, antigen immobilised
Method: (§4) Binding kinetics were determined using the Biolayer Interferometry (BLI) Octet K2 system (Sartorius). […] All assays were conducted in PBS with a plate temperature of 25° C. Ka (M⁻¹s⁻¹), Kd (s⁻¹) and KD (nM) values were determined using Octet Data Analysis High Throughput software (ForteBio) for Biolayer Interferometry.

[6] = biological target: T2, Human ALPPL2 (leucine zipper); test: BLI, antigen immobilised
Method: as §4

[7] = biological target: T4, human ALPPL2 on CHO cells; test: flow cytometry, CHO cells stably expressing human ALPPL2; PDC detected with FITC anti-human Ab
Method: (§5) Biparatopic VHH-hFc drug conjugates were assessed for human ALPP, ALPPL2, ALPI and ALPL cell-surface binding by flow cytometry. Binders were screened on CHO cells stably expressing human ALPP, ALPPL2, ALPI or ALPL.
(§6) Cell surface binding of test agents to hALPP isoforms was characterized in four CHO-ALPP isoform transfectant cell lines (CHO-ALPP, CHO-ALPPL2, CHO-ALPI and CHO-ALPL) and the resulting KDapp values determined. Adherent cells were detached from tissue culture flasks by incubating with 0.1% EDTA/PBS solution at 37° C. for […] or until cells detached easily. Cells were re-suspended in ice-cold PBS/2% FCS in 15 ml tubes and centrifuged at 1700 rpm for 5 mins at 4° C. Supernatant was removed and the cell pellet re-suspended in PBS/2% FCS. […] Cells were incubated with 100 μl of test agents at a range of concentrations, plus controls for 1 hr on ice. The sample plate was centrifuged at 1700 rpm for 5 mins at 4° C. The supernatant was removed, and a wash performed by re-suspending the cell pellets in 0.25 mL of ice-cold PBS/2% FCS using a multichannel pipette. Samples were again centrifuged at 1700 rpm for 5 min at 4° C. Supernatant was removed and two further washes performed as described. […] Binding of VHH-hFc agents was determined by adding 100 μl of Fitc-anti-human Ab (ThermoFisher) and incubating for 30 mins on ice in the dark. […]

human ALPL on CHO cells = biological target: T3, human ALPL on CHO cells; test: flow cytometry, CHO cells stably expressing human ALPL; PDC detected with FITC anti-human Ab
Procedure, shortened: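 Cell-surface binding to CHO cells stably transfected with human ALPP, ALPPL2, ALPI or ALPL; cells detached with 0.1% EDTA/PBS, incubated with biparatopic VHH-hFc drug conjugates over a concentration range for 1 hr on ice. Bound agent detected with FITC anti-human Ab (30 min, ice, dark) by flow cytometry; KDapp derived from binding.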

human ALPP on CHO cells [8] = biological target: T5, human ALPP on CHO cells; test: flow cytometry, CHO cells stably expressing human ALPP; PDC detected with FITC anti-human Ab
Method: as §5, §6

Kd [1]	Kd (human ALPP on CHO cells [2])	EC50 (read off the curve) [3]	EC50 (read off the curve) (human ALPP on CHO cells [4])	Kd [5]	koff [5]	kon [5]	Kd [6]	koff [6]	kon [6]	EC50 (read off the curve) [7]	binding result (human ALPL on CHO cells)	EC50 (read off the curve) (human ALPP on CHO cells [8])	Binder
5 nM	5.3 nM	~5 nM	~5 nM	1.18 nM	0.000191 s⁻¹	162000 M⁻¹ s⁻¹	0.29 nM	0.00014 s⁻¹	482000 M⁻¹ s⁻¹	–	–	–	B01 His (VHH, not shown: small tags and cut ends) VHH: QVQLVESGGGLVQAGGSLRLSCEVTRSPMPIDTMAWYRQAPGRQRELVAIISRSGSTNYADSVKGRFTISRNDTKSTMYKSTMYLKMNTLELEDTGVYYCNAVGLWNGAEYWGQGTQVTVSS
–	–	–	–	–	–	–	–	–	–	~5 nM	no binding (tested: 350 nM)	–	D10-A06 hFc-vcPAB-MMAE [G4S]3 (Fc fusion, DAR 4, MC-vc-PAB-MMAE on Cys 239 and Cys 442 (EU numbering), Biparatopic drug conjugate, DAR 4; also called #633) chain 1: QVQLVESGGGLVQPGGSLRLSCAASGSIFSVNTMGWYRQAPGKQRDLVAVATSGGTIHYADSVKGRFTISRDNAKNTVYLQMNSLKPEDTAVYYCNLVVPYGMIAGDHDYWGQGTKVTVSSGGGGSGGGGSGGGGSEPKSSDKTHTCPPCPAPELLGGPCVFLFPPKPKDTLMISRTPEVTCVVVDVSHEDPEVKFNWYVDGVEVHNAKTKPREEQYNSTYRVVSVLTVLHQDWLNGKEYKCKVSNKALPAPIEKTISKAKGQPREPQVYTLPPSRDELTKNQVSLYCLVKGFYPSDIAVEWESNGQPENNYKTTPPVLDSDGSFFLYSKLTVDKSRWQQGNVFSCSVMHEALHNHYTQKSLCLSPGK chain 2: QVHLVESGGGLVQAGGSLRLSCAASGRTFLSMGWFRQAPGKEREFVAAISWTGGSTGYADSVKGRFTISRESDKETMYLQMNSLKPEDTAVYYCAARGDVYYGGDDATRYKYWGQGTQVTVSSGGGGSGGGGSGGGGSEPKSSDKTHTCPPCPAPELLGGPCVFLFPPKPKDTLMISRTPEVTCVVVDVSHEDPEVKFNWYVDGVEVHNAKTKPREEQYNSTYRVVSVLTVLHQDWLNGKEYKCKVSNKALPAPIEKTISKAKGQPREPQVYTLPPSRDELTKNQVSLTCLVKGFYPSDIAVEWESNGQPENNYKTTPPVLDSDGSFFLTSKLTVDKSRWQQGNVFSCSVMHEALHNHYTQKSLCLSPGK
–	–	–	–	–	–	–	–	–	–	–	no binding (tested: 350 nM)	10 to 22 nM	D10-A06-hFc-vcPAB-MMAE [G4S]1 (Fc fusion, DAR 4, MC-vc-PAB-MMAE on Cys 239 and Cys 442 (EU numbering), Biparatopic drug conjugate, DAR 4; also called #676) chain 1: QVQLVESGGGLVQPGGSLRLSCAASGSIFSVNTMGWYRQAPGKQRDLVAVATSGGTIHYADSVKGRFTISRDNAKNTVYLQMNSLKPEDTAVYYCNLVVPYGMIAGDHDYWGQGTKVTVSSGGGGSEPKSSDKTHTCPPCPAPELLGGPCVFLFPPKPKDTLMISRTPEVTCVVVDVSHEDPEVKFNWYVDGVEVHNAKTKPREEQYNSTYRVVSVLTVLHQDWLNGKEYKCKVSNKALPAPIEKTISKAKGQPREPQVYTLPPSRDELTKNQVSLYCLVKGFYPSDIAVEWESNGQPENNYKTTPPVLDSDGSFFLYSKLTVDKSRWQQGNVFSCSVMHEALHNHYTQKSLCLSPGK chain 2: QVHLVESGGGLVQAGGSLRLSCAASGRTFLSMGWFRQAPGKEREFVAAISWTGGSTGYADSVKGRFTISRESDKETMYLQMNSLKPEDTAVYYCAARGDVYYGGDDATRYKYWGQGTQVTVSSGGGGSEPKSSDKTHTCPPCPAPELLGGPCVFLFPPKPKDTLMISRTPEVTCVVVDVSHEDPEVKFNWYVDGVEVHNAKTKPREEQYNSTYRVVSVLTVLHQDWLNGKEYKCKVSNKALPAPIEKTISKAKGQPREPQVYTLPPSRDELTKNQVSLTCLVKGFYPSDIAVEWESNGQPENNYKTTPPVLDSDGSFFLTSKLTVDKSRWQQGNVFSCSVMHEALHNHYTQKSLCLSPGK

Reference: patent US20260216242A1 (ALMAC DISCOVERY, published 2026)
